Paper PMC10992996, “Human CRB1 and CRB2 form homo- and heteromeric protein complexes in the retina” (Life Science Alliance, 2024)

Target: T1, CRB1-FLAG p.N1317H (human, UniProt P82279 26-1406, p.N1317H)
T1 construct: Crumbs homolog 1, canonical form, human, cDNA NM_202153 as printed, with a patient missense mutation; Made by site-directed mutagenesis of m1; also called CRB1 p.N1317H; p.C1317H; source: HEK293T, transfected, in lysate; not shown: Strep-Strep-FLAG, N-terminal, kept
T1 sequence (looked up): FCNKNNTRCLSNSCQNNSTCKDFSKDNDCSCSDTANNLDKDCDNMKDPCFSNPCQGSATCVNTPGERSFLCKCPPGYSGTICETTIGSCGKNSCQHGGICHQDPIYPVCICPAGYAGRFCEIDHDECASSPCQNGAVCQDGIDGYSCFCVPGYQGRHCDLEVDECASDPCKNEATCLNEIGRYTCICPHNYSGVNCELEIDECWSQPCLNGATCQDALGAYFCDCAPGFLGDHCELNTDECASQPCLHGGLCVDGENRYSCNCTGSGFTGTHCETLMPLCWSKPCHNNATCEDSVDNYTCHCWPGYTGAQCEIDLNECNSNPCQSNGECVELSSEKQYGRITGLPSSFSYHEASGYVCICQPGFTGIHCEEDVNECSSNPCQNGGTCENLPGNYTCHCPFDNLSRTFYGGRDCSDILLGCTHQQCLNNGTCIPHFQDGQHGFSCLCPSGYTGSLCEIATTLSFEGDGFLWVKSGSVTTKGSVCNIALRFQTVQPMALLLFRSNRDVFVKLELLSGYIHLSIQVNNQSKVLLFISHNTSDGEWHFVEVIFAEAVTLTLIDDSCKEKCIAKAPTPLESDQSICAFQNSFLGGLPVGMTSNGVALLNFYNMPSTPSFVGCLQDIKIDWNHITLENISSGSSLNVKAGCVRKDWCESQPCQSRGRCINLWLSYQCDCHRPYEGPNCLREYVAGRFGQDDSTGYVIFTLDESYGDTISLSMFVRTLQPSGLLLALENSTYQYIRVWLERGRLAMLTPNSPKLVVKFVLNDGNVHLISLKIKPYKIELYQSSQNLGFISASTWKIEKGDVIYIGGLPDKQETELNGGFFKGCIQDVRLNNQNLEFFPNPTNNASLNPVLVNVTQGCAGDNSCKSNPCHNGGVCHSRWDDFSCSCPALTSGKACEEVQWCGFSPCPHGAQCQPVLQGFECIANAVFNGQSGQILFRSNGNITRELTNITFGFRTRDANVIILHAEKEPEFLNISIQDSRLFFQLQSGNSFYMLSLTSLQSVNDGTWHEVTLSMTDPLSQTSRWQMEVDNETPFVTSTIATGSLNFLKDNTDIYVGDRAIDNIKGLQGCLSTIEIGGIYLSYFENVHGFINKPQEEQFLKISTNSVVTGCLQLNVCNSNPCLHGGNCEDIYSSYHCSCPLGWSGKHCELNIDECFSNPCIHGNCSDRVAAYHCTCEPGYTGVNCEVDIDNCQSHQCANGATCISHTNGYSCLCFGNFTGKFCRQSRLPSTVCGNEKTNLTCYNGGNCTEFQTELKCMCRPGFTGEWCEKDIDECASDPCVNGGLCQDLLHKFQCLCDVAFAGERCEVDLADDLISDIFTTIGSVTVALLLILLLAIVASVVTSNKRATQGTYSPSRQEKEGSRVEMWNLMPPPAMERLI
Assay: co-IP; HEK293T cells co-transfected pairwise with a FLAG and an HA construct, 48 h; lysis in TBS (30 mM Tris-HCl pH 7.4, 150 mM NaCl) with 0.5% Nonidet P40; FLAG-IP on ANTI-FLAG M2 Affinity Gel 60-90 min at 4°C, elution with FLAG peptide; Western blot with HA and FLAG antibodies; for mutants HA/FLAG signal in eluates relative to WT, three biological replicates
Conditions: partners not purified

B1: Human canonical CRB2 (Crumbs homolog 2) (natural protein)
chain: not shown
notes: Crumbs homolog 2, human, cDNA NM_173689; Stood as bait (FLAG copy) and as prey (HA copy) in the pairwise co-IP matrix; each copy carries only one of the two tags; The FLAG copy was the bait of the mass spectrometry pull-downs; also called CRB2-FLAG; CRB2-HA; source: HEK293T, transfected, in lysate (co-IP); HEK293T, transfected, FLAG-IP on beads, washed and purified with 0.01% SDS (retina …)
percent reduction of the interaction relative to CRB1 WT: 24%
